Experiments:
KOR = KOR (Homo sapiens, UniProt P41145); assay: Receptor cell surface level of KOR by HiBiT technology; format: cell-based; parameters: expressed in transfected cells; host or cells: U87 cells, transient, PEI; conditions: bafilomycin A1 1.5 μM, 180-minute stimulation
Description: 1.14 Monitoring of Opioid Peptide-Induced Changes in Receptor Cell Surface Levels
Determination of receptor surface expression level by NanoLuc complementation assay was performed using the Nano-Glo HiBiT extracellular detection system (Promega) according to manufacturer's protocol. […] Cells were then incubated with HiBiT extracellular reagent, consisting of Nanoluciferase extracellular substrate and LgBiT protein in HiBiT buffer. Light emission from complementation of LgBiT protein with remaining surface receptor-fused HiBiT was determined on a Mithras LB940 plate reader (Berthold Technologies). Signal was normalised to the measurement recorded at t=1 min. Noteworthy the impact of nociceptin and derivatives could not be determined in this assay due to significant LgBiT protein cross-complementation by nociceptin. Where indicated, cells were treated with bafilomycin A1 (1.5 μM in 0.15% DMSO) (Santa Cruz Biotechnology) or 0.15% DMSO for 45 minutes prior ligand stimulation and during ligand stimulation (180 minutes).

ACKR3 [1] = biological target: T1, ACKR3 (Homo sapiens, UniProt P25106); assay: Opioid peptide library screening: β-arrestin-2 recruitment to ACKR3 in U87 cells; format: cell-based; parameters: expressed in transfected cells; host or cells: U87 cells, transient co-transfection of pNBe vectors; conditions: 5 μM
Description: (§1) In brief, 1.2×10^6 U87 cells were plated in 10 cm-culture dishes and 48 hours later co-transfected with pNBe vectors encoding GPCRs C-terminally tagged to SmBiT and human β-arrestin-1 or -2 or mini G proteins (mG, engineered GTPase domains of Gα subunits,) N-terminally fused to LgBiT. 48 hours post-transfection cells were harvested, incubated 25 minutes at 37° C. with Nano-Glo Live Cell substrate diluted 200-fold and distributed into white 96-well plates (5×10^4 cells per well). Ligand-induced, β-arrestin and mG recruitment to GPCRs was evaluated with a Mithras LB940 luminometer (Berthold Technologies) for 20 minutes. For concentration-response curves, the signal recorded with a saturating concentration of full agonist for each receptor was set as 100%.
Target sequence in this assay (P25106 whole entry, the tested form may be a part): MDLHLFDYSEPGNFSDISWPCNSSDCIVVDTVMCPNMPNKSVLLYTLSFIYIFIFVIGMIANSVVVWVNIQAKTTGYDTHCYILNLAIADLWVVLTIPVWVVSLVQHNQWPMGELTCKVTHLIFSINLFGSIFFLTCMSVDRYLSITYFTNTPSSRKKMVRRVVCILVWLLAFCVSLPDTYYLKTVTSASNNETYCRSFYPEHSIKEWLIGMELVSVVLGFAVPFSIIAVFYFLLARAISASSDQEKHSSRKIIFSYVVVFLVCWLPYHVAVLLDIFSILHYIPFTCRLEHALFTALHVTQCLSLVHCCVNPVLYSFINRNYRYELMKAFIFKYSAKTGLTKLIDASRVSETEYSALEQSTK
Target sequence in this assay (P32121 whole entry partner, the tested form may be a part): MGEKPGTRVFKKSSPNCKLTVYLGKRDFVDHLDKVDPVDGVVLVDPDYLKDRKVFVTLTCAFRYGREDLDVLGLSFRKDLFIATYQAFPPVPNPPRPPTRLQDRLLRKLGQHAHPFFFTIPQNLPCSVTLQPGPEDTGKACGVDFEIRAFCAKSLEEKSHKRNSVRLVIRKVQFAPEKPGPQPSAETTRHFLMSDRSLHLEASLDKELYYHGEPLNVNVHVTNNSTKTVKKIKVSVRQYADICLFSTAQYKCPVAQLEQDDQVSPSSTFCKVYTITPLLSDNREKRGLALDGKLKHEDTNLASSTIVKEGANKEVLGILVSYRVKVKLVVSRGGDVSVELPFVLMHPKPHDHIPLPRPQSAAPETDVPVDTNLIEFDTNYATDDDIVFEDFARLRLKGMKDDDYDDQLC

ACKR3 [2] = assay: B-arrestin-1 | ACKR3 | EC50 (nM)
Description: Table printed on a drawing sheet, FIG. 1 (continued) H
Head of the field: B-arrestin-1 | ACKR3 | EC50 (nM)
The patent's description of the figure: FIG. 1 Opioid peptide library screening on ACKR3, hit confirmation and comparison with classical opioid receptors. (A) The ability of 58 compounds, including natural opioid peptides from the four opioid families, variants thereof and small molecule opioid receptor modulators, to induce β-arrestin-2 recruitment to ACKR3, CXCR4 and CXCR3 in U87 cells at a concentration of 5 μM. Positive control chemokines were used at a concentration of 300 nM. Results are expressed as fold change over vehicle-treated cells and presented as mean±S.D of two replicates (B-F) Comparison of potency and efficacy of ACKR3-activating peptides in inducing β-arrestin-1 recruitment to the opioid receptors MOR (B), DOR (C), KOR (D), NOP (E) and ACKR3 (F) in U87 cells. Results are expressed as percentage of indicated agonist response. […] Results from B—H are presented as mean±S.E.M (n ? 3).
Where the first naming reader finds the target: head: B-arrestin-1 | ACKR3 | EC50 (nM)

CXCR4 [3] = biological target: T2, CXCR4 (Homo sapiens, UniProt P61073); assay: HTRF ERK1/2 phosphorylation, U87 cells stably expressing CXCR4; format: cell-based; conditions: between 2 and 120 minutes after stimulation
T2 construct: expressed in transfected cells; pcDNA3.1 transient for DMR
Description: 1.6 Homogeneous Time-Resolved Fluorescence (HTRF)-Based Extracellular Signal Regulated Kinases 1 and 2 (ERK1/2) Phosphorylation Assays
Homogeneous Time-Resolved Fluorescence (HTRF)-based phospho-ERK1/2 and total-ERK1/2 assays were performed using phospho-ERK1/2 (Thr202/Tyr204) and total-ERK1/2 cellular kits (Cisbio International). In short, for quantification of total and phosphorylated ERK1/2 protein, U87 cells stably expressing (or not) ACKR3 or CXCR4 were seeded at a density of 3.5×10^4 cells per well into 96-well poly-D-lysine (PDL)-coated microtiter plates (Sigma-Aldrich). After overnight incubation, cells were starved for 4 hours at 37° C. in serum-free medium. Cells were then stimulated for the indicated time intervals with chemokine or opioid ligands, respectively, before termination by replacement of supernatants with lysis buffer followed by 1.5 hours incubation on an orbital shaker. […] D2-labeled anti-total-ERK1/2 and Eu^3+-Cryptate-labelled anti-total-ERK1/2 antibodies were added for quantification of total-ERK1/2 abundance. Following an incubation time of at least 2 hours (phospho-ERK1/2) or 24 hours (total-ERK1/2), time-resolved FRET signals were measured using the Mithras LB 940 multimode reader (Berthold Technologies) equipped with 320 nm excitation filter and 620 nm (donor) and 665 nm (acceptor) emission filters.

CXCR4 [4] = biological target: T2, CXCR4; assay: Dynamic mass redistribution (DMR), U87 cells expressing CXCR4; format: cell-based; conditions: 200 nM
Description: 1.5. Label-Free Dynamic Mass Redistribution (DMR) Assay
Dynamic mass redistribution (DMR) experiments were conducted using the Corning Epic (Corning) biosensor system as previously described in Schröder, R. et al. Deconvolution of complex G protein-coupled receptor signaling in live cells using dynamic mass redistribution measurements. Nat Biotechnol 28, 943-949 (2010) and Schröder, R. et al. Applying label-free dynamic mass redistribution technology to frame signaling of G protein-coupled receptors noninvasively in living cells. Nat Protoc. 6(11): 1748-1760 (2011). In brief, 6×10^5 U87 cells were seeded in 6-cm dishes. 24 hours later cells were transfected with pcDNA3.1-based expression plasmids coding for the respective chemokine (ACKR3, CXCR4) or opioid (KOR, NOP) receptors using polyethylenimine (PEI) reagent (Polysciences). 24 hours after transfection 1×10^4 cells per well were transferred to a 384-well Epic biosensor plate and incubated (37° C., 5% CO2) overnight. Cells were then washed twice with Hanks' balanced salt solution (HBSS) (Life Technologies) containing 20 mM HEPES (Life Technologies) and subsequently incubated in the DMR-reader for 1.5 hours to achieve temperature equilibration (37° C.). […] Alterations of ligand-induced DMR were monitored for at least 3000 seconds. Raw data were processed and analysed using GraphPad Prism 7.05 (GraphPad Inc).

[5] = biological target: T3, native or CXCR4-expressing U87 cells (Homo sapiens, UniProt P61073); assay: Binding of fluorescently labelled LIH383 to native or CXCR4-expressing cells
T3 construct: expressed in transfected cells; pcDNA3.1 transient for DMR

CCR3 = biological target: T4, CCR3 (Homo sapiens, UniProt P51677); assay: β-arrestin recruitment to CCR3 (NanoBiT); format: cell-based; conditions: saturating concentration (3 μM)
T4 construct: expressed in transfected cells; host or cells: U87 cells, transient co-transfection of pNBe vectors
T4 sequence (P51677 1-355): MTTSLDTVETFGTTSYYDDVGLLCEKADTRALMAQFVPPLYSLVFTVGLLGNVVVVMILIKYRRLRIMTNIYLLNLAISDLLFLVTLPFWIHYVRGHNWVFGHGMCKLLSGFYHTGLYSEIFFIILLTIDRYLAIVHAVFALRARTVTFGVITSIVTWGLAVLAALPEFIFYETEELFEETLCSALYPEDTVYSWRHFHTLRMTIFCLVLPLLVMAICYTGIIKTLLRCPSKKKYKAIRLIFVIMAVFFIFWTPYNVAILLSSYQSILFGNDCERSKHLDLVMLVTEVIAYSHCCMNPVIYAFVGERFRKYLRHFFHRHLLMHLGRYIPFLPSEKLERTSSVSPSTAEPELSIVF
Description: as §1

ACKR3 [6] = biological target: T1, ACKR3; format: cell-based; parameters: expressed in transfected cells; host or cells: U87 cells, transient co-transfection of pNBe vectors; conditions: U87 cells
Target sequence in this assay (P25106 whole entry, the tested form may be a part): as the sequence (P25106 whole entry, the tested form may be a part) above
Target sequence in this assay (P49407 whole entry partner, the tested form may be a part): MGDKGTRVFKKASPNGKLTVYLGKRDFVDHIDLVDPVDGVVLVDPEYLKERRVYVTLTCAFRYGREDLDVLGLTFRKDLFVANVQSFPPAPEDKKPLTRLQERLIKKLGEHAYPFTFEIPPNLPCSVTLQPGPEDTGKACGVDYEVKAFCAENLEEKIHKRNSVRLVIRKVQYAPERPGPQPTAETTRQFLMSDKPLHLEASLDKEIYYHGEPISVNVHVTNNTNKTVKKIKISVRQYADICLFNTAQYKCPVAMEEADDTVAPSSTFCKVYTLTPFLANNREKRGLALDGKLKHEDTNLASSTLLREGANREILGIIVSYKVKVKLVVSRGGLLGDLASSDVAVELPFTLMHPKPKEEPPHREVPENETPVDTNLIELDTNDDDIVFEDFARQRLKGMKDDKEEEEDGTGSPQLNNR

CX3CR1 = biological target: T5, CX3CR1 (Homo sapiens, UniProt P49238); assay: β-arrestin recruitment to CX3CR1 (NanoBiT); format: cell-based; conditions: saturating concentration (3 μM)
T5 construct: expressed in transfected cells; host or cells: U87 cells, transient co-transfection of pNBe vectors
T5 sequence (P49238 1-355): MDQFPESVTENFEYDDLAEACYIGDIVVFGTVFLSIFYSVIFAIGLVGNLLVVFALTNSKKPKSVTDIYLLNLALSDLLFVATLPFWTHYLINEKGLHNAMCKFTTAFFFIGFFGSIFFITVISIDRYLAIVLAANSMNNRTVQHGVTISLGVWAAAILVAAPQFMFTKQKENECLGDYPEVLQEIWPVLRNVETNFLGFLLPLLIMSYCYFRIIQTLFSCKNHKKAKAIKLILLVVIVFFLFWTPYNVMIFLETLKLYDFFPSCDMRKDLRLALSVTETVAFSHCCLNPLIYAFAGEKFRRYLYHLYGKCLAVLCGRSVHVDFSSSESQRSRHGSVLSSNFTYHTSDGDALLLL
Description: as §1

CXCR3 = assay: β-arrestin recruitment to CXCR3 (NanoBiT); format: cell-based, human; conditions: saturating concentration (3 μM)
Description: as §1

smNPCs = assay: Uptake of labelled dynorphin A (1-13) by smNPCs, imaging flow cytometry; format: cell-based, human; conditions: 250 nM, 40 minutes at 37° C.
Description: U87 cells derived from human brain glioblastoma were obtained through the NIH AIDS Reagent Program from Dr. Deng and Dr. Littman. U87 stably expressing ACKR3 and CXCR4 were generated as previously described in Szpakowska, M. et al. Different contributions of chemokine N-terminal features attest to a different ligand binding mode and a bias towards activation of ACKR3/CXCR7 compared with CXCR4 and CXCR3. Br J Pharmacol 175, 1419-1438 (2018). U87 cells were grown in Dulbecco's modified Eagle medium (DMEM) supplemented with 15% foetal bovine serum and penicillin/streptomycin (100 Units/ml and 100 μg/ml). U87-ACKR3 and U87-CXCR4 were maintained under puromycin (1 μg/ml) selective pressure. smNPCs (small molecule neural precursor cells) derived from a healthy donor (C1-1) whose informed consent was obtained, were grown on Geltrex™-coated surface in N2B27 medium supplemented with 0.5 μM Purmorphamine, 3 μM CHIR 99021 and 150 μM ascorbic acid. N2B27 medium consisted of DMEM/F12 and NeuroBasal medium 50:50 with 0.5% N2 supplement, 1% B27 supplement lacking vitamin A, 1% GlutaMAX and 1% penicilin/streptomycin. Medium was renewed every other day.
Cells were distributed into 96-well plates (2×10^5 cells/well in Opti-MEM for U87 and U87-ACKR3 and 3×10^5 cells/well in N2B27 medium for smNPCs). […] For comparison of labelled opioid peptide-uptake by ACKR3 or classical opioid receptors, 1.2×10^6 U87 cells were seeded in 10-cm dishes and transfected 48 hours later with 4 μg pcDNA3.1 plasmid encoding ACKR3 or KOR, MOR or NOP. 48 hours post transfection, cells were harvested and treated as described above. Dead cells were excluded using Zombie NIR or Zombie Green viability dye (BioLegend) for FAM-labelled peptides and Cy5-labelled peptides, respectively. Images of 1×10^4 in-focus, living single cells were acquired with an ImageStream MKII imaging flow cytometer (Amnis) using 40× magnification (60× magnification for smNPCs). Samples were analysed using Ideas6.2 software. The number of spots per cell was determined using a mask-based software wizard.

ACKR3 [7] = biological target: T1, ACKR3; assay: Uptake of fluorescently labelled opioid peptides by ACKR3-expressing U87 cells, imaging flow cytometry; format: cell-based; parameters: expressed in transfected cells; for the receptor comparison in the uptake assay, transient pcDNA3.1); conditions: 40 minutes at 37° C.
Target sequence in this assay (P25106 whole entry, the tested form may be a part): as the sequence (P25106 whole entry, the tested form may be a part) above
Description: Visualization of Fluorescently Labelled Opioid Peptides Uptake by Imagestream

T2 sequence (P61073 whole entry): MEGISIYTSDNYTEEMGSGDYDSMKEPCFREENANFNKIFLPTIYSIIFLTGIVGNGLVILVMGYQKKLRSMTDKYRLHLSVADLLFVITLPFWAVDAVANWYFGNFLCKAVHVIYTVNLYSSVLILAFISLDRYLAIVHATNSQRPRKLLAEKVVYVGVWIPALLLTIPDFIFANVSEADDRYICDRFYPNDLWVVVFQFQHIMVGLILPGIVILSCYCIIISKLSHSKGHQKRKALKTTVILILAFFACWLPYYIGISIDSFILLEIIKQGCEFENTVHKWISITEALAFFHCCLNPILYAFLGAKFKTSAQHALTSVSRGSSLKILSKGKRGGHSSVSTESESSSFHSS
Chain of CXCR3 (P49682 5-368 limits assumed): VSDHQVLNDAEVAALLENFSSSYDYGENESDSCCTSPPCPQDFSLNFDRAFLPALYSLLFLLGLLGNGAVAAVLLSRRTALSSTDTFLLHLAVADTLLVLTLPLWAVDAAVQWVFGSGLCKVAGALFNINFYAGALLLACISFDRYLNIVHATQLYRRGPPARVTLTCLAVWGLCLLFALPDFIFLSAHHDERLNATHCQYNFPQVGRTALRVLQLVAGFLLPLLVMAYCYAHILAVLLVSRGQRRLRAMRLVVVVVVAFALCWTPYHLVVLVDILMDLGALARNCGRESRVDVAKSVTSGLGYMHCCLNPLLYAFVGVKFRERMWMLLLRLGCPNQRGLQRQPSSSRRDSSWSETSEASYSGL
Chain of KOR (P41145 whole entry): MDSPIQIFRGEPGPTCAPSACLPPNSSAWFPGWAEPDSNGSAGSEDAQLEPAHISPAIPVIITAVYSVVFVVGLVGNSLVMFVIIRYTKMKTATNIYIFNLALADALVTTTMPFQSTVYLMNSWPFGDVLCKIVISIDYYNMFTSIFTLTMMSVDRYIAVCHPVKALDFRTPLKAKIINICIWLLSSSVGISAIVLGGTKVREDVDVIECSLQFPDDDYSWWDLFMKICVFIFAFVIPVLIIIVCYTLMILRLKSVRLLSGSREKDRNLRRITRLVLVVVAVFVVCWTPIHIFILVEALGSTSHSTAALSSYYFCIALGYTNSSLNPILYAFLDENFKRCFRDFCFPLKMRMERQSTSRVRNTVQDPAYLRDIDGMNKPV
T3 sequence (P61073 whole entry): as the sequence (P61073 whole entry) above

## CO/C1=C\C(C)=C\[C@@H](C)[C@@H](O)[C@@H](C)C/C(C)=C/C=C/[C@H](OC)[C@@H]([C@@H](C)[C@@H](O)[C@H](C)[C@@]2(O)C[C@@H](O)[C@H](C)[C@@H](C(C)C)O2)OC1=O [bafilomycin A1]
KOR
  surface levels of KOR following stimulation with opioid peptides: no effect on surface levels of KOR

## BAM18: opioid peptide previously reported as ACKR3 ligand (YGGFMRRVGRPEWWMDYQ)
ACKR3 [1]
  ability to induce β-arrestin-2 recruitment to ACKR3 (library screening): capable of inducing β-arrestin-2 recruitment to ACKR3

## BAM22: proenkephalin-derived opioid peptide
ACKR3 [2]
  EC50: 23.5 nM

## CXCL12: C—X—C motif chemokine 12, endogenous ACKR3 chemokine ligand
CXCR4 [3]
  ERK phosphorylation, cells stably expressing CXCR4: strong increase in ERK phosphorylation
CXCR4 [4]
  DMR response of CXCR4-expressing U87 cells: strong DMR

## Cy-5-labelled LIH383: fluorescently labelled LIH383 (LIH383-Cy5)
[5]
  binding to native or CXCR4-expressing U87 cells: not to native or CXCR4-expressing U87 cells

## big dynorphin: the precursor of dynorphin A and B
CCR3
  β-arrestin recruitment to CCR3: faint induction of β-arrestin recruitment
ACKR3 [6]
  β-arrestin recruitment to ACKR3: agonist activity/potency in words: at low concentrations comparable to their activity on the classical opioid receptors
CX3CR1
  β-arrestin recruitment to CX3CR1: faint induction of β-arrestin recruitment
CXCR3
  β-arrestin recruitment to CXCR3: faint induction of β-arrestin recruitment

## dynorphin A 1-13: endogenous opioid peptide, fragment of dynorphin A (YGGFLRRIRPKLK) [reference compound]
smNPCs
  accumulation of the labelled peptide by smNPCs: able to accumulate
ACKR3 [7]
  uptake of the fluorescently labelled peptide by ACKR3-expressing cells (also versus classical opioid receptor): more efficient compared to that of KOR

Source: patent US12578343B2, “Selective ACKR3 modulators and uses thereof” (Luxembourg Institute of Health (LIH), priority 2019, dated 2026)
